Measured values taken from patent US20230250154A1 (CYTONICS, published 2023).

T1: MMP1 (human, UniProt P03956 100-469, limits assumed)
T1 sequence (looked up): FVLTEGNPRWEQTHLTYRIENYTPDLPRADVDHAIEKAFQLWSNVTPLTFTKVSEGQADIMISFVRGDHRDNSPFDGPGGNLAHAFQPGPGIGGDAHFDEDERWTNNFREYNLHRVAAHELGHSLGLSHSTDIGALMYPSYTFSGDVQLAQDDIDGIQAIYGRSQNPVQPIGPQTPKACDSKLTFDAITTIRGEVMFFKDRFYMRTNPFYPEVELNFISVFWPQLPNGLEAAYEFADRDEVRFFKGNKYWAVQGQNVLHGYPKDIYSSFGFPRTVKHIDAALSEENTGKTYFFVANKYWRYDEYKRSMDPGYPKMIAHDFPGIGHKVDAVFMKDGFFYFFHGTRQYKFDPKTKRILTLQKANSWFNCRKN

T2: ADAMTS4 (human, UniProt O75173 213-685, limits assumed)
T2 sequence (looked up): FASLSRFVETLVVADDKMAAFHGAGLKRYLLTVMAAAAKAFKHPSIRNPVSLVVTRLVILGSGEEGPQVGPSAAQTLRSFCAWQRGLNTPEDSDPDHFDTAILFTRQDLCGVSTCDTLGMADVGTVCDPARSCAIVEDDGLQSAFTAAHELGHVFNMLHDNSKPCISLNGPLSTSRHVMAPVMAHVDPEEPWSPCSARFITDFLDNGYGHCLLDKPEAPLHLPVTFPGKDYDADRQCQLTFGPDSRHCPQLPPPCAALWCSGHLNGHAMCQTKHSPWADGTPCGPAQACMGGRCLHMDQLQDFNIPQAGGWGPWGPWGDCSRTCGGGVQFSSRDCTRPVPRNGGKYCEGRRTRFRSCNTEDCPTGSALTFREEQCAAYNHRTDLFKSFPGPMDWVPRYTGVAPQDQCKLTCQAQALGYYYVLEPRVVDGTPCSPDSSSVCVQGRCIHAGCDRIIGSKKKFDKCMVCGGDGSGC

T3: MMP7 (UniProt P09237 95-267, limits assumed)
T3 sequence (looked up): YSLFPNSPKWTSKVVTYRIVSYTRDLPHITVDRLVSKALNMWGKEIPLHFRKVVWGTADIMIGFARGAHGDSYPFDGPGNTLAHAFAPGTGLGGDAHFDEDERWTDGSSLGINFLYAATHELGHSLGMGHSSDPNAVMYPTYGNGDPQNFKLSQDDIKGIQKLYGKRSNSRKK

T4: Cathepsin G (UniProt P08311 21-244)
T4 sequence (looked up): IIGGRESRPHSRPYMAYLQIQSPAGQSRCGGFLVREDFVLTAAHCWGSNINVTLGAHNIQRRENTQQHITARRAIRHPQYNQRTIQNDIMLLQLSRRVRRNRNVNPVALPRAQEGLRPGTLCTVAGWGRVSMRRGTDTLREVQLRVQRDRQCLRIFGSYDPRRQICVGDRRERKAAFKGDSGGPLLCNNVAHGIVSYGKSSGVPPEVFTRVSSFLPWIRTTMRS

T5: ADAMTS5 (human, UniProt Q9UNA0 262-622, limits assumed)
T5 sequence (looked up): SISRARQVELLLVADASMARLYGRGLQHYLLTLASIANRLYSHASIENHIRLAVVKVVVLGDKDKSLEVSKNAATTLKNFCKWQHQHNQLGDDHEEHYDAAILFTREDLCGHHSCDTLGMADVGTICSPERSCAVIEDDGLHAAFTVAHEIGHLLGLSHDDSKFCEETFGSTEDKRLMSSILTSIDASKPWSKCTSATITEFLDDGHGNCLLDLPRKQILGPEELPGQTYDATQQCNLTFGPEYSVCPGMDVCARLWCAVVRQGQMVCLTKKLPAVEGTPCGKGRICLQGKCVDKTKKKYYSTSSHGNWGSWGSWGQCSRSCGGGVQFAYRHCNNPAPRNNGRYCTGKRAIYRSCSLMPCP

T6: MMP2 (human, UniProt P08253 110-660, limits assumed)
T6 sequence (looked up): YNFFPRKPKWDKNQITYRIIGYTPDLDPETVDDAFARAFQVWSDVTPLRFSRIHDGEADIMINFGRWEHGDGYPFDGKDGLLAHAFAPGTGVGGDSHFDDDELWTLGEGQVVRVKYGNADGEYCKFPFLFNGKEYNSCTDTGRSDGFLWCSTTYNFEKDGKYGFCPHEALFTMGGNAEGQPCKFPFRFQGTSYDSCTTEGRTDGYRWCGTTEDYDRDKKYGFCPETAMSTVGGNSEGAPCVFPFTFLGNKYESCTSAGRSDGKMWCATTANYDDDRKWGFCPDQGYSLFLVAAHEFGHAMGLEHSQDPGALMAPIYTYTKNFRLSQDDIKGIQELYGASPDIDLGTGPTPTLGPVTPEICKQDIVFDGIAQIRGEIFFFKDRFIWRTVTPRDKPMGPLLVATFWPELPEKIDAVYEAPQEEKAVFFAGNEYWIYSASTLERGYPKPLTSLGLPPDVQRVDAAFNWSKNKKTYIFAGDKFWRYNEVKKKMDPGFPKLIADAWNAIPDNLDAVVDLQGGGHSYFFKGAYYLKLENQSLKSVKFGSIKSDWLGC


Experiments:
Assay in all cases: cell-based or functional assay
[1] = biological target: MMP3 (human, UniProt P08254 100-477, limits assumed)
Chain of MMP3 (P08254 100-477 limits assumed): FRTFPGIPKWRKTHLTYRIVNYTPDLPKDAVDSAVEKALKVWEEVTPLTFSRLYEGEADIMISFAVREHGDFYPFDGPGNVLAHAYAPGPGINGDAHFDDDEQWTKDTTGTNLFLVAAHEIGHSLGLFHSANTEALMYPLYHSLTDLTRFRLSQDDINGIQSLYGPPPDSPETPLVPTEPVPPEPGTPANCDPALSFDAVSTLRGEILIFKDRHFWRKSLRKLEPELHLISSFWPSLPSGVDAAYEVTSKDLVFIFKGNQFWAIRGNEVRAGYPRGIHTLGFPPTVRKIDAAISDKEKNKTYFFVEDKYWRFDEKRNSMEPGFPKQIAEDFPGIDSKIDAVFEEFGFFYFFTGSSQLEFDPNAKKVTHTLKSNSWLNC

[2] = biological target: T1, MMP1
[3] = biological target: T2, ADAMTS4
[4] = biological target: MMP13 (human, UniProt P45452 104-471, limits assumed)
[5] = biological target: MMP8 (human, UniProt P22894 101-467, limits assumed)
Chain of MMP8 (P22894 101-467 limits assumed): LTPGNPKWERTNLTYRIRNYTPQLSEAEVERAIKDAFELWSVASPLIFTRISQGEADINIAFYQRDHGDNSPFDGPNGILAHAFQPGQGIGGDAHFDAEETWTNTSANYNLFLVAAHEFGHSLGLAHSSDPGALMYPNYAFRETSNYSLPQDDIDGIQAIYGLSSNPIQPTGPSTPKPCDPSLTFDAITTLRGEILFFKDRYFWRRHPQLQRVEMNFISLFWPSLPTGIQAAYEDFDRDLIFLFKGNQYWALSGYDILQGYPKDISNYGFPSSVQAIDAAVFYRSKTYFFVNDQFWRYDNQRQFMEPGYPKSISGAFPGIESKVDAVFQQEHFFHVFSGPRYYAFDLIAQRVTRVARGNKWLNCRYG

[6] = biological target: Elastase
[7] = biological target: T3, MMP7
[8] = biological target: T4, Cathepsin G
[9] = biological target: T5, ADAMTS5
[10] = biological target: T6, MMP2
[11] = biological target: MMP9 (human, UniProt P14780 107-707, limits assumed)
Chain of MMP9 (P14780 107-707 limits assumed): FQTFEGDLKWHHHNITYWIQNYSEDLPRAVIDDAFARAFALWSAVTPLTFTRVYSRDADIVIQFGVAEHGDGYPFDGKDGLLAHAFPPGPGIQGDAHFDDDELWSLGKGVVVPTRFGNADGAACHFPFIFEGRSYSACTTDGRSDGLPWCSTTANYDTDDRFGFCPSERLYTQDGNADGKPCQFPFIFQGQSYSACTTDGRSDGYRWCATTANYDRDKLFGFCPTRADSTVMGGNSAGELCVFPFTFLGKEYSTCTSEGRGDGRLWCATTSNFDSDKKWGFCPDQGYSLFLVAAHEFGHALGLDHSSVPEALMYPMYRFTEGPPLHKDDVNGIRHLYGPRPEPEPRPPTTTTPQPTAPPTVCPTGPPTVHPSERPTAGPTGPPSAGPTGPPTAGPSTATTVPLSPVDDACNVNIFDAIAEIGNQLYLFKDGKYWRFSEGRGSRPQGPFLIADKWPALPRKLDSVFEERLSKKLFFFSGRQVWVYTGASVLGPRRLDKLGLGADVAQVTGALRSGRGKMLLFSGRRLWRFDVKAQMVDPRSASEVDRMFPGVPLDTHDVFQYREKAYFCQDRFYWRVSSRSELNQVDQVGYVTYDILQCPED

Protease Inhibition (% of WT) [1]	Protease Inhibition (% of WT) [2]	Protease Inhibition (% of WT) [3]	Protease Inhibition (% of WT) [4]	Protease Inhibition (% of WT) [5]	Protease Inhibition (% of WT) [6]	Protease Inhibition (% of WT) [7]	Protease Inhibition (% of WT) [8]	Protease Inhibition (% of WT) [9]	Protease Inhibition (% of WT) [10]	Protease Inhibition (% of WT) [11]	Binder
129 % of WT	67 % of WT	180 % of WT	90 % of WT	38 % of WT	75 % of WT	94 % of WT	69 % of WT	398 % of WT	36 % of WT	14 % of WT	Variant A2M, bait region SEQ ID NO 28 (other) SVSGKPQYMVLVPSLLHTETTEKGCVLLSYLNETVTVSASLESVRGNRSLFTDLEAENDVLHCVAFAVPKSSSNEEVMFLTVQVKGPTQEFKKRTTVMVKNEDSLVFVQTDKSIYKPGQTVKFRVVSMDENFHPLNELIPLVYIQDPKGNRIAQWQSFQLEGGLKQFSFPLSSEPFQGSYKVVVQKKSGGRTEHPFTVEEFVLPKFEVQVTVPKIITILEEEMNVSVCGLYTYGKPVPGHVTVSICRKYSDASDCHGEDSQAFCEKFSGQLNSHGCFYQQVKTKVFQLKRKEYEMKLHTEAQIQEEGTVVELTGRQSSEITRTITKLSFVKVDSHFRQGIPFFGQVRLVDGKGVPIPNKVIFIRGNEANYYSNATTDEHGLVQFSINTTNVMGTSLTVRVNYKDRSPCYGYQWVSEEHEEAHHTAYLVFSPSKSFVHLEPMSHELPCGHTQTVQAHYILNGGTLLGLKKLSFYYLIMAKGGIVRTGTHGLLVKQEDMKGHFSISIPVKSDIAPVARLLIYAVLPTGDVIGDSAKYDVENCLANKVDLSFSPSQSLPASHAHLRVTAAPQSVCALRAVDQSVLLMKPDAELSASSVYNLLPEKDLTGFPGPLNDQDDEDCINRHNVYINGITYTPVSSTNEKDMYSFLEDMGLKAFTNSKIRKPKMCPQLEQYEMHGPEGEGEGEFRAAPFLTAIPENFFGVSEDLVVQISELEGRGSPHTKLRKYFPETWIWDLVVVNSAGVAEVGVTVPDTITEWKAGAFCLSEDAGLGISSTASLRAFQPFFVELTMPYSVIRGEAFTLKATVLNYLPKCIRVSVQLEASPAFLAVPVEKEQAPHCICANGRQTVSWAVTPKSLGNVNFTVSAEALESQELCGTEVPSVPEHGRKDTVIKPLLVEPEGLEKETTFNSLLCPSGGEVSEELSLKLPPNVVEESARASVSVLGDILGSAMQNTQNLLQMPYGCGEQNMVLFAPNIYVLDYLNETQQLTPEIKSKAIGYLNTGYQRQLNYKHYDGSYSTFGERYGRNQGNTWLTAFVLKTFAQARAYIFIDEAHITQALIWLSQRQKDNGCFRSSGSLLNNAIKGGVEDEVTLSAYITIALLEIPLTVTHPVVRNALFCLESAWKTAQEGDHGSHVYTKALLAYAFALAGNQDKRKEVLKSLNEEAVKKDNSVHWERPQKPKAPVGHFYEPQAPSAEVEMTSYVLLAYLTAQPAPTSEDLTSATNIVKWITKQQNAQGGFSSTQDTVVALHALSKYGAATFTRTGKAAQVTIQSSGTFSSKFQVDNNNRLLLQQVSLPELPGEYSMKVTGEGCVYLQTSLKYNILPEKEEFPFALGVQTLPQTCDEPKAHTSFQISLSVSYTGSRSASNMAIVDVKMVSGFIPLKPTVKMLERSNHVSRTEVSSNHVLIYLDKVSNQTLSLFFTVLQDVPVRDLKPAIVKVYDYYETDEFAIAEYNAPCSKDLGNADYKDDDDKGASHHHHHH
86 % of WT	101 % of WT	144 % of WT	138 % of WT	36 % of WT	100 % of WT	140 % of WT	117 % of WT	376 % of WT	43 % of WT	25 % of WT	Variant A2M, bait region SEQ ID NO 25 (other) SVSGKPQYMVLVPSLLHTETTEKGCVLLSYLNETVTVSASLESVRGNRSLFTDLEAENDVLHCVAFAVPKSSSNEEVMFLTVQVKGPTQEFKKRTTVMVKNEDSLVFVQTDKSIYKPGQTVKFRVVSMDENFHPLNELIPLVYIQDPKGNRIAQWQSFQLEGGLKQFSFPLSSEPFQGSYKVVVQKKSGGRTEHPFTVEEFVLPKFEVQVTVPKIITILEEEMNVSVCGLYTYGKPVPGHVTVSICRKYSDASDCHGEDSQAFCEKFSGQLNSHGCFYQQVKTKVFQLKRKEYEMKLHTEAQIQEEGTVVELTGRQSSEITRTITKLSFVKVDSHFRQGIPFFGQVRLVDGKGVPIPNKVIFIRGNEANYYSNATTDEHGLVQFSINTTNVMGTSLTVRVNYKDRSPCYGYQWVSEEHEEAHHTAYLVFSPSKSFVHLEPMSHELPCGHTQTVQAHYILNGGTLLGLKKLSFYYLIMAKGGIVRTGTHGLLVKQEDMKGHFSISIPVKSDIAPVARLLIYAVLPTGDVIGDSAKYDVENCLANKVDLSFSPSQSLPASHAHLRVTAAPQSVCALRAVDQSVLLMKPDAELSASSVYNLLPEKDLTGFPGPLNDQDDEDCINRHNVYINGITYTPVSSTNEKDMYSFLEDMGLKAFTNSKIRKPKMCPQLEHGPEGEGEGEGIPENFYGVSEDLYTASELEGRGSVEEPHTKLRKYFPETWIWDLVVVNSAGVAEVGVTVPDTITEWKAGAFCLSEDAGLGISSTASLRAFQPFFVELTMPYSVIRGEAFTLKATVLNYLPKCIRVSVQLEASPAFLAVPVEKEQAPHCICANGRQTVSWAVTPKSLGNVNFTVSAEALESQELCGTEVPSVPEHGRKDTVIKPLLVEPEGLEKETTFNSLLCPSGGEVSEELSLKLPPNVVEESARASVSVLGDILGSAMQNTQNLLQMPYGCGEQNMVLFAPNIYVLDYLNETQQLTPEIKSKAIGYLNTGYQRQLNYKHYDGSYSTFGERYGRNQGNTWLTAFVLKTFAQARAYIFIDEAHITQALIWLSQRQKDNGCFRSSGSLLNNAIKGGVEDEVTLSAYITIALLEIPLTVTHPVVRNALFCLESAWKTAQEGDHGSHVYTKALLAYAFALAGNQDKRKEVLKSLNEEAVKKDNSVHWERPQKPKAPVGHFYEPQAPSAEVEMTSYVLLAYLTAQPAPTSEDLTSATNIVKWITKQQNAQGGFSSTQDTVVALHALSKYGAATFTRTGKAAQVTIQSSGTFSSKFQVDNNNRLLLQQVSLPELPGEYSMKVTGEGCVYLQTSLKYNILPEKEEFPFALGVQTLPQTCDEPKAHTSFQISLSVSYTGSRSASNMAIVDVKMVSGFIPLKPTVKMLERSNHVSRTEVSSNHVLIYLDKVSNQTLSLFFTVLQDVPVRDLKPAIVKVYDYYETDEFAIAEYNAPCSKDLGNADYKDDDDKGASHHHHHH
